Among the data in patent US20180356429A1 are Assay Signal Neg (blank) and Assay Signal Pos values, retold here.

Assay [1] has as its target Recombinant human IL-13 (R&D Systems, MN, catalog no. 213-ILB/CF) (human) (UniProt P35225). The experiment in a line: sandwich pair screen, negative (blank) signal, binder is detection Ab; capture Ab 4D7.
The target is the same in assay [2]. The assay can be described thus: sandwich pair screen, negative (blank) signal, binder is detection Ab; capture Ab 11H4.
For assay [3] the target is unchanged. The experiment in a line: sandwich pair screen, negative (blank) signal, binder is detection Ab; capture Ab 14C9.
For assay [4] the target is unchanged. The experiment in a line: sandwich pair screen, negative (blank) signal, binder is detection Ab; capture Ab 8C11.
For assay [5] the target is unchanged. The assay can be described thus: sandwich pair screen, negative (blank) signal, binder is detection Ab; capture Ab 32116.
Assay [6] has the same target. The experiment in a line: sandwich pair screen, negative (blank) signal, binder is detection Ab; capture Ab 228B/C.
Assay [7] has the same target. The assay can be described thus: sandwich pair screen, 100 pg/mL recombinant IL-13, binder is detection Ab; capture Ab 4D7.
The target is the same in assay [8]. The assay can be described thus: sandwich pair screen, 100 pg/mL recombinant IL-13, binder is detection Ab; capture Ab 11H4.
Assay [9] shares this target. The assay can be described thus: sandwich pair screen, 100 pg/mL recombinant IL-13, binder is detection Ab; capture Ab 14C9.
Assay [10] has the same target. The assay can be described thus: sandwich pair screen, 100 pg/mL recombinant IL-13, binder is detection Ab; capture Ab 8C11.
For assay [11] the target is unchanged. The experiment in a line: sandwich pair screen, 100 pg/mL recombinant IL-13, binder is detection Ab; capture Ab 32116.
For assay [12] the target is unchanged. The experiment in a line: sandwich pair screen, negative (blank) signal, binder is detection Ab; capture Ab MILR1444A.
The target is the same in assay [13]. The experiment in a line: sandwich pair screen, 100 pg/mL recombinant IL-13, binder is detection Ab; capture Ab 228B/C.
For assay [14] the target is unchanged. The assay can be described thus: sandwich pair screen, 100 pg/mL recombinant IL-13, binder is detection Ab; capture Ab MILR1444A.

Recombinant human IL-13 (R&D Systems, MN, catalog no. 213-ILB/CF) (human), sequence (P35225 other isoform, or with tags, fused parts or gaps): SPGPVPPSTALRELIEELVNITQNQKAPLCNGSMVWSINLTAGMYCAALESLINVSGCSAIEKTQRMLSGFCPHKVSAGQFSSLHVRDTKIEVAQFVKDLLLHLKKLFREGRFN

B1: 228B/C (antibody, from a related filing, V domains shown)
VH: QVQLQESGPGLVAPSQSLSITCTVSGFSLNAYSVNWVRQPPGKGLEWLGMIWGDGKIVYNSALKSRLNISKDSSKSQVFLKMSSLQSDDTARYYCAGDGYYPYAMDNWGHGTSVTVSS
VL: NIVLTQSPASLAVSLGQRATISCRASKSVDSYGNSFMHWYQQKPGQPPKLLIYLASNLESGVPARFSGSGSRTDFTLTIDPVEADDAASYYCQQNNEDPRTFGGGTKLEIK
Take B1: the Assay Signal Neg (blank) in assay [1] is 24.7; in assay [2], 22.4; in [3], 29; in assay [4], 3.9; in [5], 15.2; in [6] it was 26.6. Also, the Assay Signal Neg (blank) in assay [12] came to 5.4. Also, the Assay Signal Pos in assay [7] was 29.9; in assay [8] it was 9540; in assay [9] it was 70.3; in assay [10], 25.4; in assay [11] it was 126; in assay [13], 27.7. Besides, the Assay Signal Pos in assay [14] turned out to be 6.
